Test results reported in patent US20060029603A1.

Molecular target: GST-human NOGO-A56 (human) [GST: P08515]
Assay: SPR (Biacore 3000), GST-human NOGO-A56 on CM5, antibody as analyte; single experiment

Chain of GST-human NOGO-A56 (human) [GST: P08515] (P08515 1-218, tags or fused parts left off): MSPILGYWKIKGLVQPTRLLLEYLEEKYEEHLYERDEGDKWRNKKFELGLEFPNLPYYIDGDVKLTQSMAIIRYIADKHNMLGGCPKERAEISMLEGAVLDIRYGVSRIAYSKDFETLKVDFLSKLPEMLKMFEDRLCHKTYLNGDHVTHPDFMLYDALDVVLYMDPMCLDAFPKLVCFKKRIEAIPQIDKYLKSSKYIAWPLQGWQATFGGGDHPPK

Kd: 0.057 nM
koff: 8.25e-05 s⁻¹
kon: 1.44e+06 M⁻¹ s⁻¹
Substance: 11C7 (chimeric version) (antibody)
